# Reference: patent US20160223529A1 (UNIVERSITY OF QUEENSLAND, published 2016)
# B1: TVMV-AI-CalmodulinBinder (enzyme)
# chain: SKALLKGVRDFNPISACVCLLENSSDGHSERLFGIGFGPYIIANQHLFRRNNGELTIKTMHGEFKVKNSTQLQMKPVEGRDIIVIKMAKDFPPFPQKLKFRQPTIKDRVCMVSTNFQQKSVSSLVSESSHIVHKEDTSFWQHWITTKDGQCGSPLVSIIDGNILGIHSLTHTTNGSNYFVEFPEKFVATYLDAADGWCKNWKFNADKISWGSFILWEDAPEDFMSGLVPRGVGREYVRFAPRWKKNFIAVSAANRFKKISSSGAL
# notes: also called TVMV based calmodulin sensor
# B2: ePDZ (designed binder)
# chain: SGTSPELGFSISGGVGGRGNPFRPDDDGIFVTRVQPEGPASKLLQPGDKIIQANGYSFINIEHGQAVSLLKTFQNTVELIIVREVGNGAKQEIRVRVEKDGGSGGVSSVPTNLEVVAATPTSLLISWDASYYGVSYYRITYGETGGNSPVQEFTVPYSSSTATISGLKPGVDYTITVYAYSDYYGSHHYSPISINYRTSGC
# Legend:
# Calmodulin = Calmodulin (Homo sapiens (Human), UniProt P0DP23 4-149); test: Protease activation assay: TVMV activity on a fluorogenic substrate at different calmodulin concentrations (FIG. 3)
# TVMV-AI-ePDZ-Binder = target: T1, TVMV-AI-ePDZ-Binder; test: Protease activation assay: TVMV activity on a fluorogenic substrate (FIG. 5)
# T1 chain: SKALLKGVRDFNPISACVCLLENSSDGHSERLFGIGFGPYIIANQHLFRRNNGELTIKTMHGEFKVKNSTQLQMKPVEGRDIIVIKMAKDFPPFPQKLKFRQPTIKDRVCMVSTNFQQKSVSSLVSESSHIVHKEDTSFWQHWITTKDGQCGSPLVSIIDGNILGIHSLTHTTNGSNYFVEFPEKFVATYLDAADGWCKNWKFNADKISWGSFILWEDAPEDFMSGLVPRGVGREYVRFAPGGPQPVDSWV
Binder,binding result (Calmodulin),binding result (TVMV-AI-ePDZ-Binder)
B1,binds,
B2,,binds
